T1: human DBP5 f.l. (residues 1-479) (human, UniProt Q9UMR2 1-479)
T1 sequence (looked up): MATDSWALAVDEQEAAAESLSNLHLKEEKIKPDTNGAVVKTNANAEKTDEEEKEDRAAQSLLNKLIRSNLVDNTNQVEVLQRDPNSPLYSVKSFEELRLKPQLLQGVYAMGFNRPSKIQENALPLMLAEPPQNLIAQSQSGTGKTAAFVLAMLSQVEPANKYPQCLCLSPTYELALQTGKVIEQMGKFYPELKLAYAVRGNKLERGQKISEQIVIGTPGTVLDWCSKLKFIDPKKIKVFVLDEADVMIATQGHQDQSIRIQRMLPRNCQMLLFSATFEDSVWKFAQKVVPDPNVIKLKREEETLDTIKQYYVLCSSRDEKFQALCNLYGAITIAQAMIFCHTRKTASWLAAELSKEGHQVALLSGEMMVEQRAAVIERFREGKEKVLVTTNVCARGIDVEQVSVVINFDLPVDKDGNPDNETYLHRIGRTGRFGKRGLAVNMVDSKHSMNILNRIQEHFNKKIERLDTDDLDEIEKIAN

B1: human full-length SLIP1 (natural protein, UniProt A9UHW6 1-222, looked up)
chain: MGEPSREEYKIQSFDAETQQLLKTALKDPGAVDLEKVANVIVDHSLQDCVFSKEAGRMCYAIIQAESKQAGQSVFRRGLLNRLQQEYQAREQLRARSLQGWVCYVTFICNIFDYLRVNNMPMMALVNPVYDCLFRLAQPDSLSKEEEVDCLVLQLHRVGEQLEKMNGQRMDELFVLIRDGFLLPTGLSSLAQLLLLEIIEFRAAGWKTTPAAHKYYYSEVSD
B2: human DBP5 residues 1-51 (domain or fragment, UniProt Q9UMR2 1-51, looked up)
chain: MATDSWALAVDEQEAAAESLSNLHLKEEKIKPDTNGAVVKTNANAEKTDEE

What all share (assay): ITC
Background: In ITC the heat of successive injections is recorded.

For assay [1], the target named is zebrafish (Danio rerio) full-length SLIP1 (zebrafish (Danio rerio)).
For assay [2], the target named is T1, human DBP5 f.l. (residues 1-479).
Assay [3] has as its target B1.

One may read the Kd as a measure of binding affinity in units of concentration. A higher Kd goes with weaker binding.

In assay [1], “zebrafish DBP5 residues 1-32 (domain or fragment)” gave a Kd of 2000 nM. Turning to B1, the equilibrium dissociation constant (Kd) in assay [2] was found to be 100 nM.

With B2, in assay [3], the dissociation constant Kd was about 1100 nM.

The values are drawn from paper PMC3763545 (Nucleic Acids Research, 2013).
